From US20250313644A1 (FUTUREGEN BIOPHARMACEUTICAL BEIJING, published 2025)

How the values were obtained:
human TL1A (HuTL1A) [1] = target: T1, human TL1A (HuTL1A) (human, UniProt O95150 57-251, limits assumed, biotin-labelled in some assays (site not stated)); test: cell-based or functional assay
T1 sequence: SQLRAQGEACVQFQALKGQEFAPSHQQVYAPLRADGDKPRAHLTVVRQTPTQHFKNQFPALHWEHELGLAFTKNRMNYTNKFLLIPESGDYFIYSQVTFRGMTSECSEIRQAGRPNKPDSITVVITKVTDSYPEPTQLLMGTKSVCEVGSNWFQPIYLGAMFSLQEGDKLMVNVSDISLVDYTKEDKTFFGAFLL

FASL [2] = target: T2, FASL (UniProt P48023 134-281, limits assumed); test: ELISA, coated FASL, Ab 25 nM
T2 sequence (looked up): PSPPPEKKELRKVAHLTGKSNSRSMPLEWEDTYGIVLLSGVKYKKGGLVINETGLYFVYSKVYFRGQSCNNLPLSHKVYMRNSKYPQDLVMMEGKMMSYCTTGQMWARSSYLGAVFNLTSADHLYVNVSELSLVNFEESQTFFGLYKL
Protocol: (§1) In this experiment, ELISA was used to assess the binding ability of monoclonal antibodies to TL1A homologous molecules. Representative members of the TNF ligand superfamily, TNFα, LT-α, LIGHT and FASL, were selected for binding testing. 1 μg/mL of TNFα, LT-α, LIGHT or FASL was coated in a microplate with a carbonate buffer solution at pH=9.6, 100 μL per well, and the microplate was incubated at 4° C. overnight. The microplate was then washed 5 times with PBST, blocked with 300 μL/well of PBS containing 1% BSA, and was incubated at room temperature for 1 hour. After washing 5 times with PBST, about 100 μL each of the M701 monoclonal antibodies and the control antibodies were added to each well, and were incubated at room temperature for 1 hour. After washing 5 times with PBST, 100 μL of HRP-anti-human Fc (Sino Biological) was added to each well, and was incubated at room temperature for 1 hour. After washing 5 times with PBST, 100 μL of colorimetric substrate TMB was added to each well, and color was developed at room temperature for 10 minutes, followed by addition of 1M sulfuric acid to terminate the reaction. OD450 nm was recorded on a microplate reader.

LIGHT [3] = target: T3, LIGHT (UniProt O43557 74-240, limits assumed); test: ELISA, coated LIGHT, Ab 100 nM
Protocol: as §1

human TL1A (HuTL1A) [4] = target: T1, human TL1A (HuTL1A); test: DLS, antigen and antibody mixed in equal moles
Protocol: 60 μM antigen and antibody was mixed in equal moles, incubated at room temperature for 30 minutes, and then the molecular size was detected using UNCLE or SEC.

TNFα [5] = target: T4, TNFα (UniProt P01375 77-233); test: ELISA, coated TNF-α, Ab 6.25 nM
Protocol: as §1

FASL [6] = target: T2, FASL; test: ELISA, coated FASL, Ab 0.000 nM (blank)
Protocol: as §1

LIGHT [7] = target: T3, LIGHT; test: ELISA, coated LIGHT, Ab 0.391 nM
Protocol: as §1

LT-α [8] = target: T5, LT-α (UniProt P01374 35-205); test: ELISA, coated LT-α, Ab 100 nM
T5 sequence (looked up): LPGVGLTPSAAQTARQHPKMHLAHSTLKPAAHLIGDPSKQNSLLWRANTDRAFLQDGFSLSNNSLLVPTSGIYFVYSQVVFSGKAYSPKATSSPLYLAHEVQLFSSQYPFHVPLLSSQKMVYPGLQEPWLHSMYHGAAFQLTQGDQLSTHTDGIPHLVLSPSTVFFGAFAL
Protocol: as §1

TNFα [9] = target: T4, TNFα; test: ELISA, coated TNFα
Protocol: as §1

LT-α [10] = target: T5, LT-α; test: ELISA, coated LT-α, Ab 0.000 nM (blank)
Protocol: as §1

LIGHT [11] = target: T3, LIGHT; test: ELISA, coated LIGHT, Ab 0.000 nM (blank)
Protocol: as §1

TNFα [12] = target: T4, TNFα; test: ELISA, coated TNF-α, Ab 1.563 nM
Protocol: as §1

LIGHT [13] = target: T3, LIGHT; test: ELISA, coated LIGHT, Ab 25 nM
Protocol: as §1

TNFα [14] = target: T4, TNFα; test: ELISA, coated TNF-α, Ab 0.000 nM (blank)
Protocol: as §1

TNFα [15] = target: T4, TNFα; test: ELISA, coated TNF-α, Ab 0.391 nM
Protocol: as §1

FASL [16] = target: T2, FASL; test: ELISA, coated FASL, Ab 0.391 nM
Protocol: as §1

LIGHT [17] = target: T3, LIGHT; test: ELISA, coated LIGHT, Ab 1.563 nM
Protocol: as §1

LIGHT [18] = target: T3, LIGHT; test: ELISA, coated LIGHT, Ab 6.25 nM
Protocol: as §1

LT-α [19] = target: T5, LT-α; test: ELISA, coated LT-α, Ab 25 nM
Protocol: as §1

FASL [20] = target: T2, FASL; test: ELISA, coated FASL, Ab 6.25 nM
Protocol: as §1

human TL1A (HuTL1A) [21] = target: T1, human TL1A (HuTL1A); test: cell-based or functional assay; remark: listed apart in the source
TNFα [22] = target: T4, TNFα; test: ELISA, coated TNF-α, Ab 100 nM
Protocol: as §1

TNFα [23] = target: T4, TNFα; test: ELISA, coated TNF-α, Ab 25 nM
Protocol: as §1

FASL [24] = target: T2, FASL; test: ELISA, coated FASL, Ab 1.563 nM
Protocol: as §1

FASL [25] = target: T2, FASL; test: ELISA, coated FASL, Ab 100 nM
Protocol: as §1

FASL [26] = target: T2, FASL; test: ELISA, coated FASL
Protocol: as §1

LT-α [27] = target: T5, LT-α; test: ELISA, coated LT-α
Protocol: as §1

LT-α [28] = target: T5, LT-α; test: ELISA, coated LT-α, Ab 0.391 nM
Protocol: as §1

LT-α [29] = target: T5, LT-α; test: ELISA, coated LT-α, Ab 6.25 nM
Protocol: as §1

LT-α [30] = target: T5, LT-α; test: ELISA, coated LT-α, Ab 1.563 nM
Protocol: as §1

LIGHT [31] = target: T3, LIGHT; test: ELISA, coated LIGHT
Protocol: as §1

T4 sequence (P01375 77-233 limits assumed): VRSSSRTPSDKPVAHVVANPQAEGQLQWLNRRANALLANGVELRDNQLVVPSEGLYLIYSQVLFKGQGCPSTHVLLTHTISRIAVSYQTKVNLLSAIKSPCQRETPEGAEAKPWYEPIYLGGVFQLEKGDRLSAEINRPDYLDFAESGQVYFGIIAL
T3 sequence (O43557 74-240 limits assumed): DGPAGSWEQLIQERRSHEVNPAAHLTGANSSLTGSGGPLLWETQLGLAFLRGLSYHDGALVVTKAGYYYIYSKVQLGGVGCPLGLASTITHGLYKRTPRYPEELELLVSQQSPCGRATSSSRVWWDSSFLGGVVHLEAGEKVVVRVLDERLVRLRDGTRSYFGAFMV

B1: M701-4019 (antibody, human IgG1, kappa, L234A L235A, V domains shown)
VH: ELQLQESGPGLVKPSETLSLTCAVSGVSFTDYHWAWIRQPPGKGLEWIGDINHRGHTNYNPSLKSRVTVSIDTSKNQFSLKLSSVTAADTAVYYCARDYPNFIYDYWGQGTLVTVSS
VL: DIQLTQSPGTLSLSPGERATLSCRASQSVSNYLAWYQQKPGQAPRLLIYGASRRATGIPARFSGSGSGTDFTLTISSLEPEDFAVYYCQQYAASPLTFGQGTKVEIKR
notes: Fc-engineered IgG1
Human TL1A (HuTL1A) [1]
  IC50 (read off the curve); IFN-γ of human T cells with IL-12, IL-18 and exogenous human TL1A: ~0.2 nM
FASL [2]
  OD450 nm: 0.0612
LIGHT [3]
  OD450 nm: 0.0942
Human TL1A (HuTL1A) [4]
  Ave Z-dia (nm) of the antigen-antibody complex: 18.5 nm
TNFα [5]
  OD450 nm: 0.0591
FASL [6]
  OD450 nm: 0.0602
LIGHT [7]
  OD450 nm: 0.0528
LT-α [8]
  OD450 nm: 0.067
TNFα [9]
  binding result: no binding (tested: 100 nM)
LT-α [10]
  OD450 nm: 0.0648
LIGHT [11]
  OD450 nm: 0.0563
TNFα [12]
  OD450 nm: 0.057
LIGHT [13]
  OD450 nm: 0.061
TNFα [14]
  OD450 nm: 0.0748
TNFα [15]
  OD450 nm: 0.0567
FASL [16]
  OD450 nm: 0.0506
LIGHT [17]
  OD450 nm: 0.0539
LIGHT [18]
  OD450 nm: 0.0572
LT-α [19]
  OD450 nm: 0.0627
FASL [20]
  OD450 nm: 0.0529
Human TL1A (HuTL1A) [21]
  IC50 (read off the curve); SEAP reporter in HEK293T/DR3-NFκB cells with soluble TL1A, OD655: ~1 nM
TNFα [22]
  OD450 nm: 0.105
TNFα [23]
  OD450 nm: 0.066
FASL [24]
  OD450 nm: 0.0514
FASL [25]
  OD450 nm: 0.0886
FASL [26]
  binding result: no binding (tested: 100 nM)
LT-α [27]
  binding result: no binding (tested: 100 nM)
LT-α [28]
  OD450 nm: 0.0572
LT-α [29]
  OD450 nm: 0.0566
LT-α [30]
  OD450 nm: 0.0602
LIGHT [31]
  binding result: no binding (tested: 100 nM)
